Measurements: the supplement of paper PMC7877785
± gives the uncertainty stated by the source.

Assay: self-splicing fitness, log relative to wild type (ln ratio); higher = more splicing; Tetrahymena group I intron in knt gene, E. coli kanamycin selection, DiMSum; sequences stand for … in CUCUCU…GGAGGGAAAAGUUAUCAGGCAUGCACCUGGUAGCUAGUCUUUAAACCAAUAGAUUGCAUCGGUUUAAAAGGCAAGACCGUCAAAUUGCGGGAAAGGGGUCAACAGCCGUUCAGUACCAAGUCUCAGGGGAAACUUUGAGAUGGCCUUGCAAAGGGUAUGGUAAUAAGCUGACGGACAUGGUCCUAACCACGCAGCCAAGUCCUAAGUCAACAGAUCUUCUGUUGAUAUGGAUGCAGUUCACAGACUAAAUGUCGGUCGGGGAAGAUGUAUUCUUCUCAUAAGAUAUAGUCGGACCUCUCCUUAAUGGGAGCUAGCGGAUGAAGUGAUGCAACACUGGAGCCGCUGGGAACUAAUUUGUAUGCGAAAGUAUAUUGAUUAGUUUUGGAGUACUCGUGGUCG
Procedure, shortened: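 DiMSum derived fitness as the error-weighted combination of fold changes across replicates, kanamycin versus no kanamycin, normalised to wild type. E. coli BL21(DE3) held the library, which randomised all eight P1ex-region intron nucleotides within the knt kanamycin-resistance gene on pET-22b(+). Six replicate transformations grew overnight at 37°C or 30°C on LB agar with or without 25 μg/mL kanamycin, also containing 100 μg/mL carbenicillin, 50 μM IPTG and 0.2% rhamnose, and pooled colonies were amplicon-sequenced on an Illumina HiSeq 2500.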

Row | Sequence | self-splicing fitness (ln) (30 °C) | self-splicing fitness (ln) (37 °C)
1 | ACCCAGCAAUAUUACGAGCC | -3.18 ± 0.15 | -1.54 ± 0.14
2 | UGCGAGCAAUAUUACGAAAC | -2.99 ± 0.17 | -3.8 ± 0.34
3 | ACGUAGCAAUAUUACGCGGA | -2.05 ± 0.18 | -0.895 ± 0.11
4 | CGGGAGCAAUAUUACGGAUG | -3.1 ± 0.23 | -2.75 ± 0.26
5 | AUCGAGCAAUAUUACGGUAG |  | -1.93 ± 0.27
6 | AUGAAGCAAUAUUACGGUAC | -1.71 ± 0.14 | -0.139 ± 0.13
7 | CCGUAGCAAUAUUACGUUGC | -3.53 ± 0.28 | -2.04 ± 0.43
8 | UCGAAGCAAUAUUACGUUGU | -2.09 ± 0.19 | -2.33 ± 0.2
9 | GAGAAGCAAUAUUACGGUAU | -1.67 ± 0.096 | -1.79 ± 0.17
10 | UAAAAGCAAUAUUACGCUAG | -1.09 ± 0.07 | -0.327 ± 0.091
11 | CUACAGCAAUAUUACGCUUG | -2.37 ± 0.15 | -2.26 ± 0.16
12 | UGCGAGCAAUAUUACGAGUU | -3.05 ± 0.14 | -1.35 ± 0.13
13 | UCUCAGCAAUAUUACGCAGA | -2.73 ± 0.49 | 
14 | GAGUAGCAAUAUUACGGAAU | -2.46 ± 0.31 | -1.32 ± 0.23
15 | AGUAAGCAAUAUUACGGACG | -0.782 ± 0.093 | -0.415 ± 0.12
16 | GCGUAGCAAUAUUACGCCAC |  | -2.26 ± 0.29
17 | ACUGAGCAAUAUUACGAUCA | -2.89 ± 0.43 | -2.9 ± 0.34
18 | CUAAAGCAAUAUUACGGAUU | -4.39 ± 0.22 | -2.62 ± 0.23
19 | GGGCAGCAAUAUUACGUUAG | -1.81 ± 0.093 | -0.462 ± 0.13
20 | UGCUAGCAAUAUUACGUCAU | -2.72 ± 0.24 | -2.61 ± 0.22
21 | GGUAAGCAAUAUUACGAGGA |  | -1.84 ± 0.45
22 | CACCAGCAAUAUUACGCCCC | -3.28 ± 0.38 | 
23 | UGAGAGCAAUAUUACGUAGC |  | -2.96 ± 0.4
24 | CACAAGCAAUAUUACGUAUA | -2.66 ± 0.13 | -2.67 ± 0.16
25 | UAGGAGCAAUAUUACGAAAA | -3.01 ± 0.45 | -1.65 ± 0.41

Row | Sequence | self-splicing fitness (ln) (30 °C) | self-splicing fitness (ln) (37 °C)
26 | CCAAAGCAAUAUUACGCGCU | -3.57 ± 0.15 | -3.13 ± 0.17
27 | CGGAAGCAAUAUUACGUUAC |  | -2.57 ± 0.2
28 | GGUGAGCAAUAUUACGAAAC | -2.41 ± 0.24 | -1.02 ± 0.27
29 | UCAUAGCAAUAUUACGGACA | -2.48 ± 0.21 | -0.42 ± 0.15
30 | AUGAAGCAAUAUUACGCAAU | -1.03 ± 0.11 | -0.743 ± 0.12
31 | CAGUAGCAAUAUUACGUCGA | -3.45 ± 0.25 | -1.49 ± 0.17
32 | CGGCAGCAAUAUUACGAUGC | -3.41 ± 0.29 | -1.6 ± 0.32
33 | AGCCAGCAAUAUUACGCCGG |  | -3.39 ± 0.27
34 | CAGAAGCAAUAUUACGUCGA | -2.1 ± 0.13 | -0.369 ± 0.1
35 | UUUCAGCAAUAUUACGUUAA | -1.45 ± 0.077 | -1.09 ± 0.076
36 | CGAUAGCAAUAUUACGCGUU | -3.13 ± 0.24 | -2.51 ± 0.22
37 | CUAAAGCAAUAUUACGUGGU | -3.41 ± 0.12 | -2.73 ± 0.15
38 | GAAGAGCAAUAUUACGCAGU | -2.47 ± 0.2 | -2.38 ± 0.23
39 | GCUUAGCAAUAUUACGUACU | -0.712 ± 0.1 | -0.0558 ± 0.13
40 | GUCCAGCAAUAUUACGGAUG | -0.272 ± 0.077 | 0.023 ± 0.1
41 | AGUUAGCAAUAUUACGUGGG | -4 ± 0.29 | -3.07 ± 0.31
42 | GUUUAGCAAUAUUACGAGCC | -3.21 ± 0.21 | -1.56 ± 0.2
43 | UAGCAGCAAUAUUACGGAAA | -1.82 ± 0.17 | -1.81 ± 0.29
44 | UCCUAGCAAUAUUACGUUGG | -3.74 ± 0.27 | -2.35 ± 0.2
45 | CAUUAGCAAUAUUACGUAUG | -3.57 ± 0.2 | -2.9 ± 0.3
46 | UUUUAGCAAUAUUACGUCGA | -0.866 ± 0.12 | 0.0877 ± 0.14
47 | AAUGAGCAAUAUUACGCAGC | -3.14 ± 0.44 | -2.54 ± 0.36
48 | UCAAAGCAAUAUUACGCCUA | -2.71 ± 0.2 | -0.722 ± 0.11
49 | UCCAAGCAAUAUUACGAACU | -2.6 ± 0.15 | -1.06 ± 0.15
50 | CAGGAGCAAUAUUACGUGUG | -2.56 ± 0.13 | -0.614 ± 0.1
